From publication PMC3445780
pKd: −log10 of the molar value.

Target: EphB4 receptor (UniProt P54760)
Test: SPR

Chain of UniProt P54760 (P54760 16-987): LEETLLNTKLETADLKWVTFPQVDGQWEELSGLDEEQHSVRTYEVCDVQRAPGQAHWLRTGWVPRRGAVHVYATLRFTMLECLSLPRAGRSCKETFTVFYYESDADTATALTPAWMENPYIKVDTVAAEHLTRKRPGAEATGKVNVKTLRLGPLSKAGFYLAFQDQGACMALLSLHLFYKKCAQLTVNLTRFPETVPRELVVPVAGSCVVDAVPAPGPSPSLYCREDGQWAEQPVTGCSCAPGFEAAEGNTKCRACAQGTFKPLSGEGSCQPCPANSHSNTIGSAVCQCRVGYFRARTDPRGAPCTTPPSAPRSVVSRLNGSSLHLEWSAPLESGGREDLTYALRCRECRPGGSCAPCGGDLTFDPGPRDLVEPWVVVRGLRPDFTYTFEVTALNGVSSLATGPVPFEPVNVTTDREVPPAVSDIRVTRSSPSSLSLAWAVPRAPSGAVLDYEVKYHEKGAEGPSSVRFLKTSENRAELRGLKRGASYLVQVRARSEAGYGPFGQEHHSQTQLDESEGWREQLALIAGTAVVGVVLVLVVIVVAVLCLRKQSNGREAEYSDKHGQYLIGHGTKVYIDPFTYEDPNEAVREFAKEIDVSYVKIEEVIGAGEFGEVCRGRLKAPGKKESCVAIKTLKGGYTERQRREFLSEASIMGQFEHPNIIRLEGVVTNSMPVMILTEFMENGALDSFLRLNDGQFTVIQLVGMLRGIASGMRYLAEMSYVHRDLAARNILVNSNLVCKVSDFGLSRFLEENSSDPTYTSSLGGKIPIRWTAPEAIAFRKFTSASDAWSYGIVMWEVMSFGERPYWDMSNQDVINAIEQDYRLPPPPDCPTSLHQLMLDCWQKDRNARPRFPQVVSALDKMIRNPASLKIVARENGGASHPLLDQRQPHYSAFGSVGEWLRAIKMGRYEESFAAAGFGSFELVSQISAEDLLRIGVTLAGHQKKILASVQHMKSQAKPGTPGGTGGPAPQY

- pKd: 8.36
Substance: cyclic peptide c(TNYL-RAW)
